Test results as given in US20100222258A1 (KABUSHIKI KAISHA HAYASHIBARA SEIBUTSU KAGAKU KENKYUJO, published 2010).

Experiments:
[1] = molecular target: T1, TNF-R2 (a protein having the amino acid sequence, Accession No. M55994 registered at GENBANK) (UniProt P20333 23-257, limits assumed); assay: SPR (BIACORE 2000), receptor on sensor tip; grade 3 = 0.5 to 2 times that of recombinant TNF-α
T1 construct: also called TNF receptor with 75 kilo daltons
T1 sequence (looked up): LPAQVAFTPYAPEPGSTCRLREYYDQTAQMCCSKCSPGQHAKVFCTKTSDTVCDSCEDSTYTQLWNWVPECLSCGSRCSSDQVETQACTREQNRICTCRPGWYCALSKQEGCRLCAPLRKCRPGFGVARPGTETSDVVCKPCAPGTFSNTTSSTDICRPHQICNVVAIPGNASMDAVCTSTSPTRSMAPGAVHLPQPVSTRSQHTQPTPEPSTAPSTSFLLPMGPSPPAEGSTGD

[2] = molecular target: T2, TNF-R1 (a protein having the amino acid sequence, Accession No. M58286 registered at GENBANK) (UniProt P19438 30-211, limits assumed); assay: SPR (BIACORE 2000), receptor on sensor tip; grade 0 = weakened to 0.001 or less of that of recombinant TNF-α
T2 construct: also called TNF receptor having a molecular weight of 55 kilo daltons
T2 sequence (looked up): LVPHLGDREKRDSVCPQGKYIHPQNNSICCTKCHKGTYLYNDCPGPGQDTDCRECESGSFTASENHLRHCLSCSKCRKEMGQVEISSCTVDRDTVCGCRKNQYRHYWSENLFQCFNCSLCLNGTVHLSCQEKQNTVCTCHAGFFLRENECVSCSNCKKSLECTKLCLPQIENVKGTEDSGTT
Source text: Using the above detector based on surface plasmon resonance effect again, the resulting clones binding to TNF-R1 (or TNF-R2) were subjected to the remaining sensor tip conjugated with TNF-R2 (or TNF-R1) to measure receptor binding affinity and select clones having a variation of receptor binding affinity. […] The resulting DNAs were digested with restrict enzymes NdeI and BamHI to obtain DNA fragments. The resulting DNA fragments were introduced into a plasmid vector containing T7 promoter region, T7 terminator region, ampicillin resistant gene region and ColE1/Ori region (product name “pET-3a”, manufactured by “Novagen®” (EMD Biosciences, Inc.)) at the position of the above restriction sites. The resulting plasmid was introduced into E. coli BL21DE3 strain to obtain a transformed E. coli for producing the TNF mutant proteins. The obtained transformed E. coli was cultured according to usual method and centrifuged to collect E. coli pellet. The resulting pellet was washed twice with TES buffer (pH 8.0) (20 mM Tris-HCl, 10 mM ethylene diamine tetraacetic acid and 0.5 M sodium chloride) and admixed with TES buffer (pH 8.0) containing 0.2 mg/ml lysozyme. The resulting suspension was sonicated according to usual manner, and centrifuged to collect a precipitate containing the produced TNF mutant protein. The resulting precipitate was treated three times in a manner of admixing with TES buffer containing 1 (w/w) % Triton X-100, removed from supernatant by centrifuging, admixed with 50 mM Tris-HCl (pH 7.0) containing 8 M guanidine hydrochloride and 50 mM dithiothreitol, with stirring for 16 hours at ambient temperature under shielded condition, and centrifuged to collect a supernatant. The resulting supernatant was gently admixed with 100 time volumes of a aqueous solution containing 1 M Tris, 0.9 (w/v) % sodium chloride, 0.4 M L-arginine chloride, 2.5 mM reduced glutathione, 0.5 mM oxidized glutathione and 0.05 (w/v) % Tween 20, and kept at 4° C. for 16 hours.

- binding affinity relative to recombinant TNF-α [1]: 0.5 to 2 fold
- binding affinity relative to recombinant TNF-α (grade) [2]: ≤ 0.001 times that of recombinant TNF-α
B1: TNF mutant protein of clone No. 11 (ligand)
chain: VRSSSRTPSDMPVAHVVANPQAEGQLQWLNRRANALLANGVELRDNQLVVPSEGLYLIYSQVLFSGQGCPSTHVLLTHTISRIAVSYQTPVNLLSAIRSPCQRETPEGAEANPWYEPIYLGGVFQLEPGDRLSAEINRPDYLDFRTDGQVYFGIIAL
notes: Mutant of lysine-replaced TNF, made in E. coli
